Laboratory results as given in paper PMC9489782.
Each block holds one substance with its values, some of them ahead of it.

Key:
[1] = target: catalytically inactive full-length (FL) PAPP-A (E483A) (human)
[2] = target: PAPP-A triple mutant L1254A/F1257A/H1211A (human)
[3] = target: PAPP-A^4C4S (C1112S, C1125S, C1130S and C1135S) (human)
[4] = target: PAPP-A^1100-1135* (PAPP-A^1100-1135 replaced with PAPP-A2^1125-1162) (human)
IGFBP5 K128D (human) = IGFBP5 K128D (human) (UniProt P24593)
IGFBP5 K128A (human) = IGFBP5 K128A (human) (UniProt P24593)
FL IGFBP5 (human) = FL IGFBP5 (human) (UniProt P24593)
[5] = target: Wild type (WT) PAPP-A (auto-cleaved) (human) (UniProt Q13219); assay: SEC-MALS; Superdex200 Increase 10/300 GL in PBS, 0.5 mL/min; PAPP-A and PAPP-A (E483A) 100 uL of 1 mg/mL; PAPP-A2 100 uL of 1, 3 and 6 mg/mL
[6] = target: N-terminal Alexa Fluor 568 conjugated IGFBP5^121-143 (human); assay: fluorescence polarisation; direct binding: 5 nM N-terminal Alexa Fluor 568 IGFBP5^121-143, serial dilutions of WT PAPP-A (5.65 uM to 33 nM), PBS, room temperature, read at 10 min; EC50 of the fit taken as KD
[7] = target: Wild type (WT) PAPP-A (auto-cleaved) (human) (UniProt Q13219)
[8] = target: Wild type (WT) PAPP-A (auto-cleaved) (human) (UniProt Q13219); assay: SEC; Superose 6 Increase 10/300 in 1X PBS, 0.5 mL/min; 0.2 mL of each protein at 1.4 uM; fractions on reduced SDS-PAGE
[9] = target: FAM-labeled FL IGFBP5 (human) (UniProt P24593); assay: fluorescence polarisation; direct binding: 5 nM FAM-labeled FL IGFBP5, serial dilutions of PAPP-A (E483A) (10 uM-50 nM), PBS, room temperature, read at 10 min; EC50 of the fit taken as KD
[10] = target: chimeric PAPP-A^1100-1111* (loop 2 replaced by amino acids 1125-1136 from PAPP-A2) (human)

Chain of PAPP-A (1267) (Q13219 23-1627): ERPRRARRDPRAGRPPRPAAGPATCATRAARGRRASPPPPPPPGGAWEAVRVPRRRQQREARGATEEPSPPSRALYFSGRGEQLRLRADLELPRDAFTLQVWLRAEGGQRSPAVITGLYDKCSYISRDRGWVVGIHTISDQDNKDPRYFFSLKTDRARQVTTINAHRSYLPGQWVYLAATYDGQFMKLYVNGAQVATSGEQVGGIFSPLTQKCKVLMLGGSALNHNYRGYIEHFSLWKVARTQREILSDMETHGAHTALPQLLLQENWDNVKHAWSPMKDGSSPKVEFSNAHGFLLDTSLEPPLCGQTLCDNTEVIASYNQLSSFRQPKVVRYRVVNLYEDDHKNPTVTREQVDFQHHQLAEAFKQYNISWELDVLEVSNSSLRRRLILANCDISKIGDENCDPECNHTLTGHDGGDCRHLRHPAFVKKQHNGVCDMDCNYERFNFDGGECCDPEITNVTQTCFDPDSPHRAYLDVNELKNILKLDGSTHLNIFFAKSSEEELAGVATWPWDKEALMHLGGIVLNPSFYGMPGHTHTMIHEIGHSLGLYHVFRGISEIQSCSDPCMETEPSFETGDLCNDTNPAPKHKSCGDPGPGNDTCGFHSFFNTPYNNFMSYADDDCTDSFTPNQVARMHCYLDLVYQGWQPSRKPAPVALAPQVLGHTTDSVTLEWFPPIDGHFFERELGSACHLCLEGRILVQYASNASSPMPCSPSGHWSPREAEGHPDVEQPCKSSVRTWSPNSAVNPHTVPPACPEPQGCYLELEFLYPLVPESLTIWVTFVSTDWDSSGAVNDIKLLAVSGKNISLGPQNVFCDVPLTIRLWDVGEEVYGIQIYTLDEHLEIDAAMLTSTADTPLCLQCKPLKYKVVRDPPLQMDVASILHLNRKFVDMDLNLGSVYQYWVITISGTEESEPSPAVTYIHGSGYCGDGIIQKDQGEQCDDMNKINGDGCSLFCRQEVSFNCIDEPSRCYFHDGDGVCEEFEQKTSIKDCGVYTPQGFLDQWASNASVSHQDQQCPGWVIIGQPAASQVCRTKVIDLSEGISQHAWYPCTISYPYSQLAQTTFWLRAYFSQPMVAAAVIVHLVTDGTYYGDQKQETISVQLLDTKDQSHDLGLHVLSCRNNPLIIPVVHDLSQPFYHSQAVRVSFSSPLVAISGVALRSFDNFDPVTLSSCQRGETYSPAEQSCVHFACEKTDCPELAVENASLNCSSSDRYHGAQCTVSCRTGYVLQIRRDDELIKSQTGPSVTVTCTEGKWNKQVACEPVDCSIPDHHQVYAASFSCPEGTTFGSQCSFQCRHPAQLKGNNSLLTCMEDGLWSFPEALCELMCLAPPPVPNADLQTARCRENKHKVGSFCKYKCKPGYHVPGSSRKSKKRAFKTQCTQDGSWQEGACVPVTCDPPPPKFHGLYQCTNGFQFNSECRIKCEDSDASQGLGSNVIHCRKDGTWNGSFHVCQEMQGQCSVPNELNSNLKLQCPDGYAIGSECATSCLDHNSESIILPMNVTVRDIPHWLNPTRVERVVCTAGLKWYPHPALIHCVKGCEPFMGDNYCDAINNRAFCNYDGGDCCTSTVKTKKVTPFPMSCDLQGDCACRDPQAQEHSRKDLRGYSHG

Substance: PAPP-A (1267) (domain or fragment)
EC50 of IGFBP4 cleavage (400 nM IGFBP4/700 nM IGF1) by PAPP-A (1267), gel-based assay, 37 °C, 4 h (PAPP-A (1267) (human)): 597 pM

Substance: PAPP-A^4C4S (C1112S, C1125S, C1130S and C1135S) (enzyme)
EC50 of IGFBP4 cleavage (400 nM IGFBP4/700 nM IGF1) by the variant, gel-based assay, 37 °C, 4 h [3]: 402 pM

Substance: Wild type (WT) PAPP-A (auto-cleaved) (from UniProt Q13219 82-1627) (enzyme)
EC50 (PAPP-A concentration) of proteolysis of 500 nM IGFBP5 K128D by WT PAPP-A, gel-based assay, 37 °C, 4 h (IGFBP5 K128D (human)): 15300 pM
EC50 (PAPP-A concentration) of proteolysis of 500 nM IGFBP5 K128A by WT PAPP-A, gel-based assay, 37 °C, 4 h (IGFBP5 K128A (human)): 1300 pM
EC50 (PAPP-A concentration) of proteolysis of 500 nM WT IGFBP5 by WT PAPP-A, gel-based assay, 37 °C, 4 h (FL IGFBP5 (human)): 53 pM
stoichiometry N [5]: 2
Kd [6]: 380000 pM
EC50 of IGFBP4 cleavage (400 nM IGFBP4/700 nM IGF1) by WT PAPP-A, gel-based assay, 37 °C, 4 h [7]: 26 pM
stoichiometry N [8]: 2

Substance: chimeric PAPP-A^1100-1111* (loop 2 replaced by amino acids 1125-1136 from PAPP-A2) (enzyme)
EC50 of IGFBP4 cleavage (400 nM IGFBP4/700 nM IGF1) by the variant, gel-based assay, 37 °C, 4 h [10]: 519 pM

Results, then the substance that gave them:

EC50 of IGFBP4 cleavage (400 nM IGFBP4/700 nM IGF1) by the co-expressed PAPP-A (FL, E483A)/PAPP-A (1132) heterodimer, gel-based assay, 37 °C, 4 h [1]: 466 pM
Substance: C-terminally truncated PAPP-A (1132) (domain or fragment)

EC50 of IGFBP4 cleavage (400 nM IGFBP4/700 nM IGF1) by the triple mutant, gel-based assay, 37 °C, 4 h [2]: 2600 pM
Substance: PAPP-A triple mutant L1254A/F1257A/H1211A (enzyme)

EC50 of IGFBP4 cleavage (400 nM IGFBP4/700 nM IGF1) by the variant, gel-based assay, 37 °C, 4 h [4]: 954 pM
Substance: PAPP-A^1100-1135* (PAPP-A^1100-1135 replaced with PAPP-A2^1125-1162) (enzyme)

Kd [9]: 250000 pM
Substance: catalytically inactive full-length (FL) PAPP-A (E483A) (enzyme)
